In the supplement of paper PMC12042874:
± gives the uncertainty stated by the source.

Assay: amyloid nucleation score (Sup35N fusion, yeast selection) (log enrichment); library NNK3; higher = more nucleation; inactive = no reads after selection
In short: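 Psi-negative yeast expressed Sup35N fused to peptides of 20 random codons. They were induced 24 hours with 100 μM copper sulfate, grown 7 days at 30°C without adenine and uracil, and their plasmid inserts from input and output were Illumina-sequenced. The nucleation score is the DiMSum log enrichment of output over input reads, centred on the mode score of non-aggregating sequences. Sequences with under 100 input reads were excluded.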
DIYSDWLFIVLRHLVIRVLS showed an amyloid nucleation score of 0.754 ± 0.12.
With DKGLGVLRHLNRWIVCTGHD the amyloid nucleation score was “inactive”.
For DLAFGMSFDWT, the amyloid nucleation score was “inactive”.
In the case of DLDGVPTHSVVERMKTWLDT, the amyloid nucleation score is reported as “inactive”.
Work on DLFCCCYTLS yielded an amyloid nucleation score of 1.03 ± 0.2.
In the case of DLFLKLSCDSRI, the amyloid nucleation score is reported as “inactive”.
DLGFWPYFISIMACCWDQKG showed an amyloid nucleation score of 1.15 ± 0.12.
In the case of DLHLLYKYILFAKLLV, the amyloid nucleation score is reported as “inactive”.
For DLIWWRGAQAVNTLNSGSKR, the amyloid nucleation score was 0.115 ± 1.
With DLLTFYFEPSASHSLLRPSG the amyloid nucleation score was “inactive”.
For DLMLWKNFSLFTRESRGFAN, the amyloid nucleation score was “inactive”.
For DLQRLSNRKSKGLWSGCIGK, the amyloid nucleation score was “inactive”.
In the case of DLTLIWMGGAAM, the amyloid nucleation score is reported as 0.826 ± 0.22.
With DLTTFQDMSTCTLWVTSGYT the amyloid nucleation score was “inactive”.
For DLYIYCFWLDMVITVCKRQK, the amyloid nucleation score was “inactive”.
For DLYQPDS, the amyloid nucleation score was “inactive”.
With DMGRCCSRKLRRRTPYVKGR the amyloid nucleation score was “inactive”.
With DMSHMIEICFVTNYTKGYVT the amyloid nucleation score was “inactive”.
In the case of DNCFRKWT, the amyloid nucleation score is reported as “inactive”.
For DNDLQSTKSPLWGVHQANVR, the amyloid nucleation score was “inactive”.
In the case of DNFVY, the amyloid nucleation score is reported as “inactive”.
With DNKVFTLSNQA the amyloid nucleation score was “inactive”.
In the case of DPGHRGLTDFYSMFRL, the amyloid nucleation score is reported as “inactive”.
Work on DPSCGECFKA yielded an amyloid nucleation score of 0.961 ± 0.1.
In the case of DPVIYRCSLVLLYSERSLPY, the amyloid nucleation score is reported as “inactive”.
In the case of DQVAYRGKSVYSYKCKTRWG, the amyloid nucleation score is reported as “inactive”.
DRAAMFSNSVQSCICTWMNI showed an amyloid nucleation score of 2.17 ± 0.061.
With DRWVQAGSHTFTFLWDCERA the amyloid nucleation score was “inactive”.
For DSISISY, the amyloid nucleation score was “inactive”.
For DSLILWHGDANCSRLGYRGH, the amyloid nucleation score was “inactive”.
For DSNLRLYALTRCHKALHVMS, the amyloid nucleation score was “inactive”.
In the case of DSNVRSFVSMLSVN, the amyloid nucleation score is reported as “inactive”.
Substance DSPMKLSALSHM has an amyloid nucleation score of -0.261 ± 0.96.
With DSPTE the amyloid nucleation score was “inactive”.
Work on DSRAGRGMSFLRFNRRSVDE yielded an amyloid nucleation score of 0.209 ± 0.38.
In the case of DSRLE, the amyloid nucleation score is reported as “inactive”.
With DSSKVGFSALVNVSTIA the amyloid nucleation score was “inactive”.
With DSSLIAGPHVVCSWGLKNFS the amyloid nucleation score was “inactive”.
In the case of DSYCYVWYKYSNVNVGD, the amyloid nucleation score is reported as “inactive”.
With DTDFIFVNIA the amyloid nucleation score was “inactive”.
For DTSKNYAIYFGKLGDWSARS, the amyloid nucleation score was -0.01 ± 0.96.
With DTVRHLISYRGLGRLHRHTM the amyloid nucleation score was “inactive”.
DTYFTVCSLWGPV showed an amyloid nucleation score of 0.999 ± 0.12.
For DVLRVFLFSSFIILCVGCTY, the amyloid nucleation score was “inactive”.
In the case of DVLWSGSYSSRLPGSIRDCE, the amyloid nucleation score is reported as “inactive”.
For DVNVALIHSDL, the amyloid nucleation score was “inactive”.
For DVPGIGCEGKALRRLGFLLR, the amyloid nucleation score was “inactive”.
With DVRKRSFIYVCNRSLVVPFR the amyloid nucleation score was “inactive”.
In the case of DVTRTCRYGEVYDWTIKIRP, the amyloid nucleation score is reported as “inactive”.
In the case of DVYISKDIRCCYLLKTFLPY, the amyloid nucleation score is reported as 0.123 ± 0.27.
In the case of DWNISLNLQDIGRRSLPIFA, the amyloid nucleation score is reported as “inactive”.
For DYKKVGDSLFTVFVFRFINV, the amyloid nucleation score was “inactive”.
With DYMRFTYRIMNCLSDCYITN the amyloid nucleation score was “inactive”.
In the case of DYQTHLCSEGLALLMRKGSR, the amyloid nucleation score is reported as “inactive”.
For DYVIVCAMEKLNRTVLWAQG, the amyloid nucleation score was “inactive”.
For DYVRKWS, the amyloid nucleation score was “inactive”.
In the case of EADPYIPKSVFGVGFNGHVV, the amyloid nucleation score is reported as “inactive”.
Work on EAGSPALRR yielded an amyloid nucleation score of 0.078 ± 0.7.
With EAGSVSYWFVATRPLKRACP the amyloid nucleation score was “inactive”.
For EAHGIQLMMGLFAFR, the amyloid nucleation score was 1.11 ± 0.15.
In the case of EALTLTARR, the amyloid nucleation score is reported as “inactive”.
With EATWMSLRYV the amyloid nucleation score was “inactive”.
With EAVKWPHMILPHCTHMWIYW the amyloid nucleation score was “inactive”.
For ECAYWMILLGLDYNGHPNRP, the amyloid nucleation score was “inactive”.
For ECENMHDTKDLGLTDGVYII, the amyloid nucleation score was “inactive”.
Work on ECGFKKR yielded an amyloid nucleation score of -0.383 ± 1.3.
For ECRYRTRR, the amyloid nucleation score was “inactive”.
In the case of ECTDFYGTGTFCFGSWRLSY, the amyloid nucleation score is reported as 1.76 ± 0.064.
With ECYTSCVMIYIIHCYKNLRL the amyloid nucleation score was “inactive”.
Substance EDFPRALVVRSYQWIYIQNV has an amyloid nucleation score of 1.24 ± 0.12.
With EFGPVTPGSEPQALLCTRRL the amyloid nucleation score was “inactive”.
With EFGWQL the amyloid nucleation score was “inactive”.
With EFKIALRRPINERAESLVTR the amyloid nucleation score was “inactive”.
For EFKQSSWY, the amyloid nucleation score was “inactive”.
With EFRIKRNR the amyloid nucleation score was “inactive”.
For EFVFECLYGTLLGRALMLRP, the amyloid nucleation score was “inactive”.
For EFWLISFQSQLSFYCDFRYD, the amyloid nucleation score was “inactive”.
With EGDYECGNTWQNGGSTSEDP the amyloid nucleation score was “inactive”.
In the case of EGFWMNAPGGRISYSINWIA, the amyloid nucleation score is reported as “inactive”.
In the case of EGIGDVCCKTPEYRSFGWMR, the amyloid nucleation score is reported as -1.13 ± 2.4.
For EHRLVDCDVWVR, the amyloid nucleation score was 2.82 ± 0.077.
For EHYFSTSIVGCGFFIWWCWG, the amyloid nucleation score was “inactive”.
With EICWKLIGRMRC the amyloid nucleation score was “inactive”.
In the case of EIKSDICFGFVYTTS, the amyloid nucleation score is reported as “inactive”.
With EIRTRPKRSVVGSRVSMGVS the amyloid nucleation score was “inactive”.
With EIVRRSSVISCHRT the amyloid nucleation score was “inactive”.
With EIVVYFEFLCYFVLEVLKSL the amyloid nucleation score was “inactive”.
For EKDNKLLVICMLV, the amyloid nucleation score was “inactive”.
EKFNCNVFIANWAK showed an amyloid nucleation score of 0.358 ± 0.36.
For EKVSYFSNNVVLIVVINRVC, the amyloid nucleation score was “inactive”.
In the case of ELFSVNKCDLALNTCLTVPG, the amyloid nucleation score is reported as 2.6 ± 0.061.
With ELGPYLNSLVAHFSRLY the amyloid nucleation score was “inactive”.
With ELIDKLVT the amyloid nucleation score was “inactive”.
In the case of ELIWAEGYRKSCKLGPVIS, the amyloid nucleation score is reported as “inactive”.
For ELLCSYTYKIGFQWFC, the amyloid nucleation score was “inactive”.
In the case of ELLVVFEESIVINFLDANIW, the amyloid nucleation score is reported as 0.674 ± 0.2.
For ELNMAVDAVYCTGSVHKIVF, the amyloid nucleation score was 1.36 ± 0.13.
With ELPLSSCNRCGECYGLAIVA the amyloid nucleation score was “inactive”.
With ELRQFSP the amyloid nucleation score was “inactive”.
With ELSFPL the amyloid nucleation score was “inactive”.
In the case of ELSTWLAYYVRLGYWCLIMM, the amyloid nucleation score is reported as “inactive”.
For ELSYDRSKYSINSLWLGIPI, the amyloid nucleation score was “inactive”.
For ELVVLYLYRRASSGWS, the amyloid nucleation score was “inactive”.
In the case of EMFYSVCFIYRIMFT, the amyloid nucleation score is reported as 1.25 ± 0.089.
With EMLFPSRICLCIHDVILPRV the amyloid nucleation score was “inactive”.
With EMLYTLIIVYLVNMYFCTQS the amyloid nucleation score was “inactive”.
With ENALRLRQVGQILGLNCRIV the amyloid nucleation score was “inactive”.
For ENERGKKMSLGYGLELAGTG, the amyloid nucleation score was “inactive”.
With ENSEW the amyloid nucleation score was “inactive”.
In the case of ENVLVVRMDRVLY, the amyloid nucleation score is reported as “inactive”.
With ENYLKVCVASVCPWLLHVRS the amyloid nucleation score was -0.079 ± 0.48.
EPGDRQARKSFRLSFWAQEV gave an amyloid nucleation score of 0.422 ± 0.21.
In the case of EPRRLRITCEYTVNRRLSDE, the amyloid nucleation score is reported as “inactive”.
In the case of EPSGNM, the amyloid nucleation score is reported as “inactive”.
For EQLKTRNRKVWV, the amyloid nucleation score was “inactive”.
In the case of EQYRSTTGLESL, the amyloid nucleation score is reported as -0.2 ± 0.96.
In the case of ERQFMFYKVTVVIPTSHLCS, the amyloid nucleation score is reported as “inactive”.
With ERSLFAYMYNNGR the amyloid nucleation score was “inactive”.
With ERSQKWVNF the amyloid nucleation score was “inactive”.
With ERVRRTV the amyloid nucleation score was “inactive”.
ESASSYFLY showed an amyloid nucleation score of 0.583 ± 0.24.
With ESMAFLRSSSLHKFVWTMYR the amyloid nucleation score was “inactive”.
In the case of ESMLIS, the amyloid nucleation score is reported as “inactive”.
With ESMSHRGAPGRERVLRSNM the amyloid nucleation score was “inactive”.
For ESQISEN, the amyloid nucleation score was “inactive”.
In the case of ESSFSGLYYDSAM, the amyloid nucleation score is reported as “inactive”.
In the case of ETSVTAHHLGIGVLLRFQQ, the amyloid nucleation score is reported as “inactive”.
In the case of EVGYKTVFPVGIMNDIVMWM, the amyloid nucleation score is reported as “inactive”.
With EVKDAWIMSYSLNYWQRLYM the amyloid nucleation score was “inactive”.
For EVKFYWKYKGV, the amyloid nucleation score was 0.561 ± 0.16.
For EVSSTDL, the amyloid nucleation score was “inactive”.
EVTSYVVFSFLIFTSMFHCK showed an amyloid nucleation score of -0.464 ± 0.36.
With EVVAAYHPATDTSDRERKAL the amyloid nucleation score was “inactive”.
For EVVLFKYVVL, the amyloid nucleation score was 0.848 ± 0.19.
With EVYYPDVNLLEPGAVKLGRH the amyloid nucleation score was “inactive”.
In the case of EWCSMYILSC, the amyloid nucleation score is reported as “inactive”.
With EWFSMIVSHFNI the amyloid nucleation score was “inactive”.
With EWISLQVKNLTVSTVMLCLE the amyloid nucleation score was “inactive”.
With EWKVLLPNLLYPSYYAQNR the amyloid nucleation score was “inactive”.
For EYESMI, the amyloid nucleation score was “inactive”.
For EYHDALEYVVGDKAIFWSGD, the amyloid nucleation score was “inactive”.
With FADYLMKPCRMCLLRDPVYS the amyloid nucleation score was “inactive”.
In the case of FAFAEERADLWSN, the amyloid nucleation score is reported as “inactive”.
For FAFLWCLDWLNRKRIMSRVE, the amyloid nucleation score was -1.34 ± 2.5.
For FAGCLGHPLERYVHLAWV, the amyloid nucleation score was “inactive”.
For FAHEVLYSANT, the amyloid nucleation score was “inactive”.
With FAILNFGMSSIIFVCLTCAN the amyloid nucleation score was “inactive”.
For FALCFKRQIGRVSRVVCHVY, the amyloid nucleation score was “inactive”.
For FAMETLNSSTFRCYHQFYGF, the amyloid nucleation score was “inactive”.
For FANFSILS, the amyloid nucleation score was “inactive”.
For FASRIWSSTITSCHLLSGSL, the amyloid nucleation score was “inactive”.
In the case of FASSDC, the amyloid nucleation score is reported as “inactive”.
In the case of FAYQFRLVDTSLSDF, the amyloid nucleation score is reported as “inactive”.
For FAYVLFATFS, the amyloid nucleation score was -0.353 ± 1.2.
With FCDGPGTKY the amyloid nucleation score was “inactive”.
With FCEGYFWCVI the amyloid nucleation score was “inactive”.
For FCFYICGLGFY, the amyloid nucleation score was “inactive”.
For FCGAYLVVIAEFL, the amyloid nucleation score was “inactive”.
For FCHLLVMLFYKGPKVFCIVM, the amyloid nucleation score was “inactive”.
With FCHVRMLAISTIYGSSVEVF the amyloid nucleation score was “inactive”.
In the case of FCIEPR, the amyloid nucleation score is reported as “inactive”.
For FCQSFWLLQLARMPCYVESQ, the amyloid nucleation score was “inactive”.
